Target: the molecule itself
Test: non-reducing SDS-PAGE; purified proteins, non-reduced and trapped with 25 mM NEM at room temperature for 10 min, SDS-PAGE, Coomassie Blue R-250; dimer seen as a covalently (disulfide) linked band

B1: IgG1 CH2 domain with the hinge region (T106-A222) (domain or fragment, human, UniProt P01857 106-222, looked up)
chain: THTCPPCPAPELLGGPSVFLFPPKPKDTLMISRTPEVTCVVVDVSHEDPEVKFNWYVDGVEVHNAKTKPREEQYNSTYRVVSVLTVLHQDWLNGKEYKCKVSNKALPAPIEKTISKA
notes: human IgG1 hinge region and CH2 domain, residues T106-A222 of immunoglobulin heavy constant gamma 1, amplified from pAAT44; The dimer is told only for the protein made in the presence of CyDisCo (intermolecular hinge disulfide); also called IgG1 CH2 domain with hinge; hinge region fused to the CH2 domain; source: E. coli BL21(DE3) cytoplasm with CyDisCo (Erv1p, PDI), purified (cobalt IMAC)
**Q.** Does B1 bind?
**A.** Result: binds

From publication PMC9737693, “Efficient Production of Fc Fusion Proteins in the Cytoplasm of Escherichia coli: Dissecting and Mitigating Redox Heterogeneity” (International Journal of Molecular Sciences, 2022)
